In patent US7312045B2, “Aggrecanase-1 and -2 peptide substrates and methods” (Ortho-McNeil Pharmaceutical, Inc., priority 2002, dated 2007):
Primed or numbered codes have the meaning given here. No end group written: not given here. *: point of attachment. Dabcyl′ = CN(C)c1ccc(/N=N/c2ccc(C(=O)*)cc2)cc1

Legend:
Assay type in all cases: biochemical
[1] = target: T1, Aggrecanase-1 (Homo sapiens, UniProt O75173); assay: Drug screening assay, aggrecanase-1 FasL1 FRET peptide cleavage; details: inhibitor 7.5 micromolar, FasL1 225 μM, 200 minutes at room temperature
T1 construct: made in house; host or cells: Sf9 cells (baculovirus, pFastBac1)
T1 sequence (O75173 213-437): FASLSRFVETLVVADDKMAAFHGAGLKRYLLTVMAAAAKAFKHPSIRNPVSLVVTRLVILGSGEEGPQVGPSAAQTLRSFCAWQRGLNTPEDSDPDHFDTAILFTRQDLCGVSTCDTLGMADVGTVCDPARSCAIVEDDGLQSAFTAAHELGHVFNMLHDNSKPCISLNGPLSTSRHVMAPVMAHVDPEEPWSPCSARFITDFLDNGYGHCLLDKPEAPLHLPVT
Method: Aggrecanase-1 ([…] of protein, 85 to 167 picomoles) was diluted in assay buffer (50 mM HEPES pH 7.5, 10 mM CaCl2, 0.1M NaCl, 0.05% Brij-35). Samples were prepared containing putative inhibitors A (Chen et al. Biorg. Med. Chem. Lett. 6(13):1601-1606, 1996) or B (Bailey, et al. Biorg. Med. Chem. Lett. 9(21):3165-3170, 1999), shown below, at a final concentration of 7.5 micromolar. The final % DMSO in the assay was 3% and it was determined experimentally that this concentration was not detrimental to the activity of the enzyme. The reaction was initiated by the addition of FasL1 peptide substrate to a final concentration of 225 μM and readings were taken at one-minute intervals, for a total of 200 minutes at room temperature.
The assay was always performed at enzyme and substrate concentrations where the activity was linearly related to enzyme concentration and where the increase in fluorescence (reaction rate) was linear for at least the time of the assay. From FIG. 4A, it can be seen that for kinetic analysis, the signal-to-noise ratio is effectively infinite, as no change in the background (blank, no enzyme) is observed over the time of the assay. For endpoint measurements, the enzyme and substrate concentrations could be adjusted to achieve the desired signal-to-noise ratio. […]

[2] = target: T2, aggrecanase-2 (Homo sapiens, UniProt Q9UNA0); assay: IC50 analysis for inhibition of aggrecanase-2, FasL1 FRET peptide cleavage; details: FasL1 225 μM, 60 minutes at room temperature, inhibitor 0.1 to 12.5 μM
T2 construct: made in house; host or cells: Sf9 cells (baculovirus, pFastBac1)
T2 sequence (Q9UNA0 262-482): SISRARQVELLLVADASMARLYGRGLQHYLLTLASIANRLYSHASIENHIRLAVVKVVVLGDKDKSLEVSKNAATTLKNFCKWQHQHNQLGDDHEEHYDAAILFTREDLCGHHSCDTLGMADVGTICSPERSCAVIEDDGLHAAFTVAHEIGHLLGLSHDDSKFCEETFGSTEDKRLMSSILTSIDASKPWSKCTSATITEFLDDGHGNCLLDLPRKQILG
Method: Aggrecanase-2 (0.5 to 1 μg of protein, 17 to 33 picomoles) was diluted in assay buffer (50 mM HEPES pH 7.5, 10 mM CaCl2, 0.1M NaCl, 0.05% Brij-35). Samples were prepared containing Inhibitor A, B or C (shown above) at final concentrations ranging from 0.1 to 12.5 μM (final DMSO concentration of 1.5%). Duplicate assays were run for each concentration of Inhibitor A, B and C (purchased from Peptides International, TAPI-0, Cat. No. INH 3850-P1) for 60 minutes at room temperature. The reaction was initiated by the addition of FasL1 peptide substrate to a final concentration of 225 μM. The reaction rates over 60 minutes at room temperature, in the absence (control) and presence of various concentrations of the inhibitor, were determined by linear regression of the data points. The reaction rate data in FIG. 4B were fitted by non-linear regression using the program Grafit (Erithacus Software).

[3] = target: T3, truncated aggrecanase-2 (Homo sapiens, UniProt Q9UNA0); assay: FRET peptide substrate screening, truncated aggrecanase-2; details: peptide 50 uM, 60 minutes at room temperature
T3 construct: made in house; host or cells: Sf9 cells (baculovirus, pFastBac1)
T3 sequence (Q9UNA0 262-482): T2 sequence (Q9UNA0 262-482)
Text: (§1) Fifty-six different peptides were synthesized to test for protease activity (see Table 3 below). The peptides included a collection of substrates for other proteases, as well as a number of sequences corresponding to membrane proximal cleavage sites of various proteins postulated to be released by metalloproteases (including those published by (Roghani et al., J. Biol. Chem. 274:3531-340, 1999) for ADAM9/MDC9). In order to use the principle of fluorescence resonance energy transfer, or FRET, the peptides were labeled at the C-terminus with Dabcyl and at the N-terminus with Aedans (or vice versa). Thus cleavage of the peptides was monitored by the increase in Aedans fluorescence at 460 nm (excitation 360 nm) as a result of the decrease in proximity of the Dabcyl quencher. The assay was performed by diluting the truncated aggrecanase-1 (approximately 2.5 to 5 μg of protein, 85 to 167 picomoles, SEQ ID NO:8) or truncated aggrecanase-2 (approximately 0.5 to 1 μg of protein, 17 to 33 picomoles, SEQ ID NO:9), in assay buffer (50 mM HEPES pH 7.5, 10 mM CaCl2, 0.1M NaCl and 0.05% (w/v) Brij-35 detergent (Sigma).
The reaction was initiated by the addition of peptide substrate to a final concentration of 100 uM for truncated aggrecanase-1 and 50 uM for truncated aggrecanase-2. The assays were typically run for 60 minutes at room temperature and the slope of the kinetic increase in fluorescence was determined to calculate the rate of the reaction.
FIG. 2 illustrates the relative activities for the 56 different peptides, A1 to H7 (only every alternate peptide is numbered in FIG. 2) expressed in arbitrary, but relative units. […] Peptide D7 (16 amino acids) corresponds to the sequence within aggrecan containing the Glu373-Ala374 aggrecanase cleavage site.

[4] = target: T2, aggrecanase-2; assay: Kinetic analysis of aggrecanase-2 peptide cleavage (Km, Vm); details: aggrecanase-2, 60 minutes at room temperature, non-linear fitting; for Vm: rfu = relative fluorescence units
Method: To confirm the screening assay, aggrecanase-2 was further analyzed for its rate of catalysis using 2 different peptides. The assay was performed by diluting the aggrecanase-2 in assay buffer (50 mM HEPES pH 7.5, 10 mM CaCl2, 0.1M NaCl and 0.05% Brij-35). […] The assay was run for 60 minutes at room temperature. FIG. 3 illustrates the proteolytic activity (in relative fluorescence units per minute) as a function of peptide concentration for peptides FasL1 and 29CD23. The curves were fitted to the data with the program Grafit (Erithacus Software Lmited). The Vmax and Km for each substrate were calculated by non-linear fitting of the data. The cleavage site for aggrecanase-2 within each peptide was determined by LC-MS analysis to be between a glutamic acid and leucine residues in each case, as indicated in Table 2 by a carot within each peptide sequence. […] However, these are clearly not the only requirements for efficient cleavage, as a number of the 56 peptides tested have similar residues and were not cleaved by the aggrecanases.

[5] = target: T4, truncated aggrecanase-1 (Homo sapiens, UniProt O75173); assay: FRET peptide substrate screening, truncated aggrecanase-1; details: peptide 100 uM, 60 minutes at room temperature
T4 construct: made in house; host or cells: Sf9 cells (baculovirus, pFastBac1)
T4 sequence (O75173 213-437): T1 sequence (O75173 213-437)
Text: as §1, with “The assay was performed by diluting the truncated aggrecanase-1 (approximately 2.5 to 5 μg of protein, 85 to 167 picomoles, SEQ ID NO:8) or truncated aggrecanase-2 (approximately 0.5 to 1 μg of protein, 17 to 33 picomoles, SEQ ID NO:9), in assay buffer (50 mM HEPES pH 7.5, 10 mM CaCl2, 0.1M NaCl and 0.05% (w/v) Brij-35 detergent (Sigma).” left out
The reaction was initiated by the addition of peptide substrate to a final concentration of 100 uM for truncated aggrecanase-1 and 50 uM for truncated aggrecanase-2. The assays were typically run for 60 minutes at room temperature and the slope of the kinetic increase in fluorescence was determined to calculate the rate of the reaction. […]

[6] = target: T5, MMP7 (Homo sapiens, UniProt P09237); assay: Similar peptide substrate screening assay with MMP7; details: similar screening assays
T5 construct: purchased Chemicon CC1059
T5 sequence (P09237 95-267): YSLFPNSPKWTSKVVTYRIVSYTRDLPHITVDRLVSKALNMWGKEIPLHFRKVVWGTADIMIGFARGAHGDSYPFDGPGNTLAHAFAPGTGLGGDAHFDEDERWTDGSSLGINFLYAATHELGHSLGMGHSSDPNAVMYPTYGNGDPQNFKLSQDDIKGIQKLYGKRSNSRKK

[7] = target: T6, MMP13 (Homo sapiens, UniProt P45452); assay: Similar peptide substrate screening assay with MMP13; details: similar screening assays
T6 construct: purchased Chemicon CC068

inhibition of aggrecanase-1 enzyme activity (FIG. 4A) [1] | IC50 [2] | relative activity of truncated aggrecanase-2 for the peptide (FIG. 2) [3] | Km [4] | Vm [4] | Compound | relative activity of truncated aggrecanase-1 for the peptide (FIG. 2) [5] | other results
completely inhibited | 38 ± 8 nM | – | – | – | CC(C)(C)C(NC(=O)C(Cc1ccc2ccccc2c1)[C@H](O)C(=O)NO)C(N)=O (stereo partly shown) [Inhibitor B] | – | –
– | 102 ± 23 nM | – | – | – | CC(C)C[C@@H](CC(=O)NO)C(=O)N[C@@H](Cc1ccc2ccccc2c1)C(=O)N[C@@H](C)C(N)=O [Inhibitor C, TAPI-0] | – | –
– | – | high activity | 40 µM | 0.6 rfu/min | (Aedans)EADLSSFKSQEL(Dabcyl)K-amide (EADLSSFKSQELK(Dabcyl′)-NH2; not fully specified (residue 1, N-terminus); printed as (Aedans)EADLSSFKSQEL(Dabcyl)K-amide; also: Aedans label on N-terminal Glu (N-terminus or side chain not given here)) [Peptide 29CD23] | – | –

The remaining lines, values behind:

Compound | inhibition of aggrecanase-1 enzyme activity (FIG. 4A) [1] | IC50 [2] | relative activity of truncated aggrecanase-2 for the peptide (FIG. 2) [3] | Km [4] | Vm [4] | relative activity of truncated aggrecanase-1 for the peptide (FIG. 2) [5] | other results
CC(C)C[C@@H](CC(=O)NO)C(=O)N[C@@H](CC(C)C)c1ncc(-c2ccccc2)[nH]1 [Inhibitor A] | completely inhibited | 118 ± 5 nM | – | – | – | – | –
(Aedans)EKELAELRESTS(Dabcyl)K-amide (EKELAELRESTSK(Dabcyl′)-NH2; not fully specified (residue 1, N-terminus); printed as (Aedans)EKELAELRESTS(Dabcyl)K-amide; also: Aedans label on N-terminal Glu (N-terminus or side chain not given here)) [FasL1] | – | – | highest activity | 80 µM | 2.8 rfu/min | highest activity | suitability as substrate for MMP7 [6]: suitable substrate; suitability as substrate for MMP13 [7]: suitable substrate
(Aedans)ERNITEGEARGSVIL(Dabcyl)K-amide (ERNITEGEARGSVILK(Dabcyl′)-NH2; not fully specified (residue 1, N-terminus); printed as (Aedans)ERNITEGEARGSVIL(Dabcyl)K-amide; also: Aedans label on N-terminal Glu (N-terminus or side chain not given here)) [Peptide D7] | – | – | Neither truncated aggrecanase-1 nor truncated aggrecanase-2 showed any activity | – | – | Neither truncated aggrecanase-1 nor truncated aggrecanase-2 showed any activity | –
